Test results reported in the supplement of paper PMC7877785.
± gives the uncertainty stated by the source.

Assay: self-splicing fitness, log relative to wild type (ln ratio); higher = more splicing; Tetrahymena group I intron in knt gene, E. coli kanamycin selection, DiMSum; sequences stand for … in CUCUCU…GGAGGGAAAAGUUAUCAGGCAUGCACCUGGUAGCUAGUCUUUAAACCAAUAGAUUGCAUCGGUUUAAAAGGCAAGACCGUCAAAUUGCGGGAAAGGGGUCAACAGCCGUUCAGUACCAAGUCUCAGGGGAAACUUUGAGAUGGCCUUGCAAAGGGUAUGGUAAUAAGCUGACGGACAUGGUCCUAACCACGCAGCCAAGUCCUAAGUCAACAGAUCUUCUGUUGAUAUGGAUGCAGUUCACAGACUAAAUGUCGGUCGGGGAAGAUGUAUUCUUCUCAUAAGAUAUAGUCGGACCUCUCCUUAAUGGGAGCUAGCGGAUGAAGUGAUGCAACACUGGAGCCGCUGGGAACUAAUUUGUAUGCGAAAGUAUAUUGAUUAGUUUUGGAGUACUCGUGGUCG
Summary of the method: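 A randomised library covering all eight P1ex-region intron nucleotides was built with the intron in the knt kanamycin-resistance gene on pET-22b(+) and held in E. coli BL21(DE3). Cells were grown overnight at 37°C or 30°C on LB agar, with or without 25 μg/mL kanamycin, plus 100 μg/mL carbenicillin, 50 μM IPTG and 0.2% rhamnose, and pooled colonies were amplicon-sequenced on an Illumina HiSeq 2500. DiMSum fitness is the error-weighted combination of wild-type-normalised replicate fold changes, kanamycin versus none.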

| Sequence | self-splicing fitness (ln) (30 °C) | self-splicing fitness (ln) (37 °C) |
| --- | --- | --- |
| GCCGAGCAAUAUUACGCGAG | -3.29 ± 0.32 | -2.03 ± 0.32 |
| UAAGAGCAAUAUUACGAUCU | -2.51 ± 0.24 | -2.86 ± 0.36 |
| AUAGAGCAAUAUUACGCCUC | -1.52 ± 0.24 | -0.831 ± 0.5 |
| UCGCAGCAAUAUUACGGAAC | -1.51 ± 0.32 | -2.53 ± 0.41 |
| GCUGAGCAAUAUUACGAAGG |  | -1.52 ± 0.28 |
| AGUGAGCAAUAUUACGCUCA |  | -2.13 ± 0.25 |
| GACUAGCAAUAUUACGAUAA | -0.678 ± 0.12 | -0.492 ± 0.13 |
| GGCGAGCAAUAUUACGAAAG | -3.27 ± 0.3 | -2.77 ± 0.24 |
| GGUCAGCAAUAUUACGGGAC | -1.72 ± 0.15 | -2.96 ± 0.4 |
| UGUGAGCAAUAUUACGAAAG | -2.98 ± 0.18 | -2.69 ± 0.27 |
| CGAAAGCAAUAUUACGUUCA | -0.312 ± 0.074 | 0.0231 ± 0.091 |
| CGUGAGCAAUAUUACGGUCA | -3.84 ± 0.25 | -2.12 ± 0.16 |
| ACAAAGCAAUAUUACGAUAA | -1.38 ± 0.086 | -1 ± 0.1 |
| GCUUAGCAAUAUUACGAAUC | -0.244 ± 0.12 | -0.0191 ± 0.15 |
| UUUAAGCAAUAUUACGGACG | -0.647 ± 0.15 | 0.235 ± 0.19 |
| CCAUAGCAAUAUUACGAGAA | -0.566 ± 0.36 |  |
| CGAAAGCAAUAUUACGGAAA | -2.9 ± 0.28 | -2.49 ± 0.22 |
| UGUAAGCAAUAUUACGGAAC | -2.78 ± 0.27 | -1.77 ± 0.26 |
| UAGAAGCAAUAUUACGUGCA | -0.492 ± 0.087 | -0.0303 ± 0.093 |
| UGCAAGCAAUAUUACGUCAU | -3.29 ± 0.13 | -2.17 ± 0.14 |
| GCGCAGCAAUAUUACGCUCU | -3.21 ± 0.28 | -1.29 ± 0.23 |

| Sequence | self-splicing fitness (ln) (30 °C) | self-splicing fitness (ln) (37 °C) |
| --- | --- | --- |
| CAGAAGCAAUAUUACGGAUA | -2.48 ± 0.13 | -1.43 ± 0.11 |
| UGCCAGCAAUAUUACGAACG | 0.252 ± 0.055 | 0.281 ± 0.067 |
| GAUCAGCAAUAUUACGCCCU | -0.299 ± 0.069 | 0.418 ± 0.084 |
| GACUAGCAAUAUUACGUGCC | -1.75 ± 0.12 | -1.58 ± 0.18 |
| GCAGAGCAAUAUUACGCUGA | -2.11 ± 0.29 | -0.433 ± 0.19 |
| CUGAAGCAAUAUUACGCCCA | -2.13 ± 0.34 |  |
| CUGAAGCAAUAUUACGCCCG | -0.0662 ± 0.23 | 0.309 ± 0.24 |
| AUCGAGCAAUAUUACGGCAU | -0.455 ± 0.098 | -0.101 ± 0.1 |
| CGAUAGCAAUAUUACGGUCA | -0.212 ± 0.057 | 0.228 ± 0.065 |
| GUUCAGCAAUAUUACGCCCA | -0.553 ± 0.1 | -1.26 ± 0.1 |
| CUAUAGCAAUAUUACGUCUU | -4.3 ± 0.32 | -2.76 ± 0.23 |
| CGCAAGCAAUAUUACGUAGG | -1.24 ± 0.057 | -0.509 ± 0.075 |
| GAGCAGCAAUAUUACGAAGC | -3.93 ± 0.25 | -2.21 ± 0.15 |
| ACCCAGCAAUAUUACGAUAG | -3.3 ± 0.1 | -1.78 ± 0.1 |
| UUGCAGCAAUAUUACGUAGA | -1.46 ± 0.074 | -0.271 ± 0.079 |
| GUGGAGCAAUAUUACGACCU | -1.22 ± 0.094 | -0.548 ± 0.11 |
| UCCCAGCAAUAUUACGACCA | -1.65 ± 0.13 | -1.06 ± 0.23 |
| GUCGAGCAAUAUUACGCAAA | -2.51 ± 0.39 |  |
| AUCGAGCAAUAUUACGUGCU | -2.72 ± 0.2 | -2 ± 0.27 |
| GUACAGCAAUAUUACGUGUU | -2.74 ± 0.075 | -1.54 ± 0.1 |
| CUUCAGCAAUAUUACGAAAG | -2.44 ± 0.077 | -1.55 ± 0.12 |

| Sequence | self-splicing fitness (ln) (30 °C) | self-splicing fitness (ln) (37 °C) |
| --- | --- | --- |
| GAGUAGCAAUAUUACGACGC | -0.488 ± 0.12 | 0.137 ± 0.14 |
| UACGAGCAAUAUUACGUGGA | -3.55 ± 0.23 | -1.98 ± 0.19 |
| GUACAGCAAUAUUACGAAUA | -3.26 ± 0.22 | -1.67 ± 0.13 |
| GGCCAGCAAUAUUACGAAGA | -3.15 ± 0.22 | -2.85 ± 0.27 |
| CAGCAGCAAUAUUACGAGAA |  | -3.16 ± 0.37 |
| UGUAAGCAAUAUUACGCGAC | -2.37 ± 0.27 | -2.4 ± 0.36 |
| AAGAAGCAAUAUUACGUCAG | -2.66 ± 0.2 | -1.91 ± 0.16 |
| UUGCAGCAAUAUUACGCAUA | -1.6 ± 0.13 | -0.643 ± 0.12 |
| AUUUAGCAAUAUUACGCCGA | -1.94 ± 0.28 | -1.09 ± 0.23 |
| ACGAAGCAAUAUUACGCUGU | -2.16 ± 0.13 | -0.576 ± 0.11 |
| AUCGAGCAAUAUUACGGGGU | -3.4 ± 0.21 | -2.52 ± 0.19 |
| GUCUAGCAAUAUUACGUCAU | -0.258 ± 0.12 | -0.425 ± 0.081 |
| CCACAGCAAUAUUACGCGAU | -3.36 ± 0.17 | -3.66 ± 0.21 |
| CAAGAGCAAUAUUACGGCUU | -3.51 ± 0.39 | -2.36 ± 0.17 |
| CGACAGCAAUAUUACGGGAG | -3.21 ± 0.15 | -1.97 ± 0.13 |
| GAGUAGCAAUAUUACGUUUG | -3.89 ± 0.16 | -3.88 ± 0.24 |
| AAUAAGCAAUAUUACGGUCA | -0.268 ± 0.084 | 0.155 ± 0.12 |
| AUGCAGCAAUAUUACGCCUA | -0.128 ± 0.1 | -0.513 ± 0.12 |
| CUGGAGCAAUAUUACGGUUA | -1.79 ± 0.26 | -2.31 ± 0.26 |
| UGCAAGCAAUAUUACGGUCG | -0.179 ± 0.073 | 0.595 ± 0.088 |
